From publication PMC5526873, “Tonoplast-localized nitrate uptake transporters involved in vacuolar nitrate efflux and reallocation in Arabidopsis” (Scientific Reports, 2017)

How the values were obtained:
[1] = biological target: T1, CHL1 (Arabidopsis thaliana, UniProt Q05085); experiment: […]-nitrate uptake in cRNA-injected Xenopus oocytes, mass spectrometry; type: cell-based; details: pH 5.5, 0.25 mM 15N-nitrate, 12 h; positive control; labelled compound (15N)
T1 construct: gene NPF6.3; cRNA-injected Xenopus laevis oocytes, positive control
T1 sequence (Q05085 1-590): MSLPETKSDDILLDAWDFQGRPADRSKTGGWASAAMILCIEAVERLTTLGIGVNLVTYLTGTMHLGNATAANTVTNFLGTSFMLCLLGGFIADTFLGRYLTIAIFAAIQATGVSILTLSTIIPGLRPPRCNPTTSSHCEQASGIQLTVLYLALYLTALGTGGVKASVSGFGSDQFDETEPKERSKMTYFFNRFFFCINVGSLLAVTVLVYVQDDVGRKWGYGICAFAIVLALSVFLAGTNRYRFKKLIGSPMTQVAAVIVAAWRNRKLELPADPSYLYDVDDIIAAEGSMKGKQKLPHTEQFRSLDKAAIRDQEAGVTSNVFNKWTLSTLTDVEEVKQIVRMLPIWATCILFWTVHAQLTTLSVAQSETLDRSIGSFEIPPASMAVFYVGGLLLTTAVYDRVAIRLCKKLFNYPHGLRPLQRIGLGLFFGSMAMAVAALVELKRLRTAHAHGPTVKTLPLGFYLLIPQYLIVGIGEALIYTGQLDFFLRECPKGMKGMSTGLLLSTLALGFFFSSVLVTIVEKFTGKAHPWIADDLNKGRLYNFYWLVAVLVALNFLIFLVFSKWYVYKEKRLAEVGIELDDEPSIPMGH

[2] = substrate: O=[N+]([O-])O; experiment: cells, lysate or membranes; type: cell-based, Arabidopsis thaliana; details: pH 5.5, 1.5 h, 0.25-30 mM, labelled compound (15N)

## O=[N+]([O-])O [nitrate]
[1]
  15N-nitrate uptake in cRNA-injected Xenopus oocytes, mass spectrometry: CHL1-injected oocytes still showed high uptake activity

B1: NPF5.16 (Arabidopsis thaliana) (protein)
chain: MAIAEEEAALIEDSVSDSVDHRGLPAGKSSTGGWRSAWYIIGVEVGERFAYFGIGSNLITYLTGPLGQSTATAAVNVNTWSGTASILPVLGAFIADAYLGRYRTIVVASLIYILGLGLLTLSSILILMGLSEQRQHNRNASAKPFFWVNILFFCSLYLVAIGQGGHKPCVQAFGADQFDVGDPKERISRGSFFNWWFLSLSAGITLSIIVVVYVQDNVNWALGFGIPCLFMVMALALFLFGRKTYRYPRGDREGKNNAFARIGRVFLVAFKNRKLKLTHSGQLEVGSYKKCKGQLEFLAKALLPGEGGVEPCSSRDVEDAMALVRLIPIWITSVVSTIPYAQYATFFTKQGVTVDRKILPGFEIPPASFQALIGLSIFISVPTYERVFLPLARLITKKPSGITMLQRIGAGMVLSSLNMVVAALVEMKRLETAKEHGLVDRPDATIPMSIWWFVPQYLLLGMIDVFSLVGTQEFFYDQVPTELRSIGLALSLSAMGLASFLSGFLITVINWATGKNGGDSWFNTNLNRAHVDYFYWLLAAFTAIGFLAFLLLSRLYVYRRVDQV
notes: cDNA in oocyte vector pOO2, cRNA-injected Xenopus laevis oocytes; EYFP fusion used for localization
[2]
  Km: 2910 µM

B2: NPF5.12 (Arabidopsis thaliana) (protein)
chain: MSTSIGDNETGAIVSNENVEFSVDFRGNPSIRSSSGAWKSSGFTMCAEVAEKFAYFGIASNLITYFTEALGESTAVAASNVNLWLGTAAFLPLIWGSIADSFLGRFRTILLTSSFYIMGLGLLTFSATIPSLCNDQETRESCVSQVKVIIFFCALYLIALGEGGFKVCLRAFGADQFDEQDPNESKAKSSYFNWLYFAISIGILTTRLVTNYVQENLSWALGYAIPCLSMMLALFLFLLGIKTYRFSTGGEGRQGKKHDNPFVRIGRVFVAAARNRRQTPSDTCLLLPNESTKKFRFLDRAVISCDSYEVEEAKAVLSLIPIWLCSLVFGIVFAQSPTFFTKQGSTMDRSISSTLQVPAATLQCFISLAILVFIPIYDRLFVPIARSITRKPAGITTLQRISTGIFLSIISMVIAALVEMKRLKTARDHGLVDSPKATVPMSVCWLIPQYILFGVSDVFTMVGLQEFFYGEVPPQLRSMGLALYLSIIGIGNFLSSFMVSVIEEATSQSGQVSWFSNNLNQAHLDYFYWLLACLSSLAFIFTVYFAKSYLYNSPK
notes: as for B1
[2]
  Km: 4840 µM

B3: NPF5.11 (Arabidopsis thaliana) (protein)
chain: MAITYSSADELGNTTEGFLEIRENTSGGWKSARLIIVVQMAERFAYFGIASNLIMYLTGPLGESTAAAAANVNAWTGTVAFLPLLGGFLADSYLGRFRTIIISSSLYILGLGLLSFSTMIPSHQSKDSNQLQETIFFFSLYLVAIGQGGYNPCIKVFGADQFDGNDHKEARDKSSFFNWLMFGNCISILTTRLVSTYIQENLSWSLGFGIPSVSMLLSLFLFLLGTTSYRFSTERVGKKNPFARISRVFMEALKNRRQPDLDIANANANETLLLLAHQSSKQFRFLDRAAISCELAEIEEAKAVLRLIPIWITSVVYTIVHAQSPTFFTKQGATMDRSISPGLLVPAATLQSFINLSVVVFIPIYDRLLVPFARSFTQNSSGITTLQRIGTGIFLSILAMVLAALVETKRLQAARDELSIPMSVWWLIPQYVIFGVSDMFTMVGLQEFFYGQVPSELRSVGMALNLSIYGAGNYLSSFMISVIDKITNQYGQRSWFDNDLDQAHLDYFYWLLACLGFIGFAFYLWFAKSYVYSRSNTF
notes: as for B1
[2]
  Km: 2570 µM
